Results reported in US9926375B2, “Anti-endoglin antibodies and uses thereof” (Tracon Pharmaceuticals, Inc., priority 2014, dated 2018).
Entries after “also recorded” stand apart in the source; their conditions may differ.

Columns and labels:
[1] = tested on: CCl4-induced liver fibrosis model mice; assay: Carbon tetrachloride-induced liver fibrosis model; format: in vivo, mouse; conditions: for Percentage of fibrosis area (Sirius red-positive area), comparison with isotype-matched antibody group: P<0.05, Bonferroni
Protocol: Seven-week-old female C57BL/6J mice (17˜21 g) were obtained from Japan SLC (Japan).
Mice were divided into 3 groups of 8 mice based on their body weight on the day before the start of the treatment (day 13).
Mice were intraperitoneally administered 5% CCl4 (Sigma-Aldrich, USA) in mineral oil (Sigma-Aldrich) in a volume of 100 μL twice a week (day 0, 4, 7, 11, 14, 18, 21 and 25) after acclimation.
To visualize collagen deposition, sections were cut from paraffin blocks of left lateral liver tissue prefixed in Bouin's solution and stained with picro-Sirius red solution (Waldeck, Germany). For quantitative analysis of fibrosis area, bright field images of Sirius red-stained section were randomly captured using a digital camera (DFC280; Leica Microsystems, Germany) at 100-fold magnification, and the Sirius red-stained positive areas in 5 field/section were measured using ImageJ software (National Institute of Health, USA). The quantification was done in a blinded fashion.
Statistical analyses were performed using Bonferroni Multiple comparison test on GraphPad Prism 4 (GraphPad Software, USA). P values<0.05 were considered statistically significant. Results were expressed as mean±SD.
Eight CCl4-induced liver fibrosis model mice were intravenously administered vehicle supplemented with M1043 Antibody at a dose of 10 mg/kg twice weekly at day 14, 17, 21 and 24. All animals were sacrificed on day 28.

mouse endoglin = biological target: T1, mouse endoglin (Mus musculus, UniProt Q63961); assay: Inhibition of mouse BMP binding to mouse endoglin (statement, no method); conditions: statement in description
T1 sequence (Q63961 27-653): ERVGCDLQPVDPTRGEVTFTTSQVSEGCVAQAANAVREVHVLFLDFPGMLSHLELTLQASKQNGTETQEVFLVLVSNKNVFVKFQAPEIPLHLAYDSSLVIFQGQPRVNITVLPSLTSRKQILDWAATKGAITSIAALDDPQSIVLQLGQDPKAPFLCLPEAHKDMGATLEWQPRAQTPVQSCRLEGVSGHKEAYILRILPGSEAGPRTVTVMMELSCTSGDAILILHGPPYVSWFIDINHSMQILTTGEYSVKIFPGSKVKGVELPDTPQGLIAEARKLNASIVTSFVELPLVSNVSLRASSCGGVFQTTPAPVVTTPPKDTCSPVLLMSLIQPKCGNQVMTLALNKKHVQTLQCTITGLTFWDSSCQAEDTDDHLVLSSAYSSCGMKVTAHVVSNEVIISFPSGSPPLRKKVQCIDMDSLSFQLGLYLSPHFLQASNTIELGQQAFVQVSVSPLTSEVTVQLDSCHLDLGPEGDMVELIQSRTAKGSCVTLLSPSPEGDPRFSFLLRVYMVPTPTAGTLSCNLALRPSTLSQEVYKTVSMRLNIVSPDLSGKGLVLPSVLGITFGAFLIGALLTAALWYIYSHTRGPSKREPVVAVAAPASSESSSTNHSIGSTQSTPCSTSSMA

NASH mice = assay: Murine model of non-alcoholic steatohepatitis (NASH; STZ and high fat diet); format: in vivo, mouse
In short: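 NASH induced in mice by single postnatal subcutaneous STZ plus high-fat diet from 4 weeks of age; groups of 10 dosed from day 63 with antibodies i.v. at 10 mg/kg twice weekly or telmisartan orally 10 mg/kg daily to day 84. At 12 weeks, H&E liver sections scored for NAFLD Activity Score (0–8); Bonferroni test, P<0.05.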

[2] = 10 mg/kg IV twice weekly, day 28, mean ± SD, n = 8
[3] = isotype-matched antibody vs disease control, M1043 Antibody vs isotype-matched antibody
[4] = liver gene expression, mean ± SD, Normal-Vehicle 1.0

B1: M1043: rat IgG1 antibody that binds mouse endoglin and competitively inhibits mouse BMP binding; VH SEQ ID NO: 124, VL SEQ ID NO: 125 (antibody, V domains shown)
VH: QVQLQQSGAELVKPGSSVKISCKASGYTFTSYDMHWIKQQPGNGLEWIGWIYPGNGNTKYNQKFNGKATLTADKSSSTAYMQLSSLTSEDSAVYFCARGKFGVGDYWGQGVMVTVSS
VL: DTVLTQSPALAVSPGERVSISCRASEGVNSYMHWYQQKPGQQPKLLIYIASNLASGVPARFSGSGSGTDFTLTIDPVEADDTATYFCQQSWNDPYTFGAGTKLELKR
[1]; 10 mg/kg IV twice weekly
  General condition / abnormal findings: no abnormal findings were observed
[1]; [2]
  Body weight on the day of sacrifice: 20.5 ± 0.7 g
  Liver weight: 896 ± 48 mg
  Sirius red-positive area (fibrosis area): 2.07 ± 0.52%
[1]; listed as Antibody M1043
  Percentage of fibrosis area (Sirius red-positive area), comparison with isotype-matched antibody group: significant reduction of collagen deposition
[1]; listed as M1043 Antibody
  Percentage of fibrosis area (Sirius red-positive area), comparison with isotype-matched antibody group: significantly decreased
[1]; histology, day 28
  Collagen deposition and bridging fibrosis in Sirius red-stained liver sections: lower collagen deposition with less frequent formation of bridging fibrosis
[1]; [3]
  Body weight changes, comparison between groups: no significant differences
  Body weight on the day of sacrifice, comparison between groups: no significant differences
[1]; isotype-matched antibody vs disease-control, M1043 Antibody vs isotype-matched antibody
  Mean liver weight, comparison between groups: no significant difference in mean body weight
Mouse endoglin
  Effect on mouse BMP binding to mouse endoglin: competitively inhibit mouse BMP binding
NASH mice; Bonferroni, P<0.05
  Liver triglyceride contents compared with the NASH-Vehicle group: significant decreases
  Mean liver weight compared with the NASH-Vehicle group: tended to decrease
  Mean liver-to-body weight ratio compared with the NASH-Vehicle group: significant decreases
  NAS compared with the NASH-Vehicle group: significant decreases in NAS; also recorded: significant reductions of NAS
  Serum alanine aminotransferase (ALT) levels compared with the NASH-Vehicle group: tended to decrease
  Serum aspartate aminotransferase (AST) levels compared with the NASH-Vehicle group: tended to decrease
NASH mice; F4/80 immunostaining, macrophage marker
  F4/80-positive signals and cells in liver compared with the NASH-Vehicle group: Lower F4/80-positive signals and positive cells
NASH mice; [4]
  Alpha-SMA mRNA expression: 1.7 ± 0.4
  MCP-1 mRNA expression: 3.2 ± 2.4
  TIMP-1 mRNA expression: 7.6 ± 3.3
  TNF-α mRNA expression: 4.4 ± 1.9
NASH mice; mean ± SD
  Liver triglyceride: 22.4 ± 5.4 mg/g liver
  Serum ALP: 358 ± 129 U/L
  Serum ALT: 24 ± 4 U/L
  Serum AST: 76 ± 24 U/L
NASH mice; mean ± SD, liver sections
  Sirius red-positive area: 0.86 ± 0.30%
NASH mice; mean ± SD, range 0-8, 10 mg/kg
  NAS (NAFLD Activity score): 4.1 ± 1.0
NASH mice; score 0 = No Foci
  Lobular inflammation score 0, number of mice: 1
NASH mice; score 0 = None
  Hepatocyte ballooning score 0, number of mice: 2
NASH mice; score 1 = 5-33%
  Steatosis score 1, number of mice: 6
NASH mice; score 1 = <2 foci/200x
  Lobular inflammation score 1, number of mice: 1
NASH mice; score 1 = Few balloon cells
  Hepatocyte ballooning score 1, number of mice: 2
NASH mice; score 2 = 2-4 foci/200x
  Lobular inflammation score 2, number of mice: 6
NASH mice; score 2 = >33-66%
  Steatosis score 2, number of mice: 2
NASH mice; score 2 = Many cells/prominent ballooning
  Hepatocyte ballooning score 2, number of mice: 4
NASH mice; summary of lobular inflammation score and F4/80 immunostaining
  Inflammatory cell infiltration in the liver: reductions in inflammatory cell infiltration in the liver
